According to PMC2789667 (Biochemistry, 2009):

Target: the molecule itself
Assay: SEC

B1: Recombinant rat NADPH-cytochrome P450 reductase with a single amino acid mutation of K56Q (enzyme, UniProt P00388 1-678, looked up)
chain: MGDSHEDTSATMPEAVAEEVSLFSTTDMVLFSLIVGVLTYWFIFRKKKEEIPEFSQIQTTAPPVKESSFVEKMKKTGRNIIVFYGSQTGTAEEFANRLSKDAHRYGMRGMSADPEEYDLADLSSLPEIDKSLVVFCMATYGEGDPTDNAQDFYDWLQETDVDLTGVKFAVFGLGNKTYEHFNAMGKYVDQRLEQLGAQRIFELGLGDDDGNLEEDFITWREQFWPAVCEFFGVEATGEESSIRQYELVVHEDMDVAKVYTGEMGRLKSYENQKPPFDAKNPFLAAVTANRKLNQGTERHLMHLELDISDSKIRYESGDHVAVYPANDSALVNQIGEILGADLDVIMSLNNLDEESNKKHPFPCPTTYRTALTYYLDITNPPRTNVLYELAQYASEPSEQEHLHKMASSSGEGKELYLSWVVEARRHILAILQDYPSLRPPIDHLCELLPRLQARYYSIASSSKVHPNSVHICAVAVEYEAKSGRVNKGVATSWLRAKEPAGENGGRALVPMFVRKSQFRLPFKSTTPVIMVGPGTGIAPFMGFIQERAWLREQGKEVGETLLYYGCRRSDEDYLYREELARFHKDGALTQLNVAFSREQAHKVYVQHLLKRDREHLWKLIHEGGAHIYVCGDARNMAKDVQNTFYDIVAEFGPMEHTQAVDYVKKLMTKGRYSLDVWS
B1: binds.
